Test [1] concerns the target T1, NANP5.5-1210 Fab-LS-Th2R nanoparticles (Plasmodium falciparum (3D7/NF54-type …, UniProt Q7K740)).
T1 construct: 5.5 NANP repeat motifs of the PfCSP central repeat (NANP5.5); 8-aa linker; Aquifex aeolicus lumazine synthase (LS) monomer; Aquifex aeolicus lumazine synthase (LS) alone, from the co-transfected LS-pHLsec plasmid; 60-mer LS nanocage; source: HEK293F, transient co-transfection, secreted, purified (StrepTrap, SEC on Superose 6); copies: + +
T1 chain: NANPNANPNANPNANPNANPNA
In words: BLI; Fabs immobilised on anti-human Fab-CH1 biosensors (10 μg/mL), dipped into nanoparticles; kinetics buffer PBS pH 7.4, 0.01% BSA, 0.002% Tween-20; Octet RED96. The note with it: both partners purified.

The target in the next test is T2, NANP6 peptide (Plasmodium falciparum (synthetic repeat …, N-terminal biotin-aminohexanoic acid tag; unmodified C-terminus).
T2 construct: PfCSP central repeat motifs; source: synthetic peptide (CPC Scientific)
T2 chain: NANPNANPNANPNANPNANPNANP
In words: SPR; Carterra LSA, CMD200M chip, 25°C; mAbs directly amine-coupled, PfCSP peptides as analytes (two-fold series, top 8 μg/ml) in 1X HBSTE; 1:1 Langmuir fit; KD includes avidity effect for antigens with multiple repeats. The note with it: both partners purified.

B1: 1210 Fab (Fab, V domains shown)
VH: QVQLVESGGGVVQPGRSLRLSCAASGFTFSNYGMHWVRQAPGKGLEWVAVIWYDGSKKYYADSVKGRFTISRDNSKNTLYLQMNSLRAEDTAVYYCARVRDSSDYYGDAFDIWGQGTMVTVSS
VL: DIQMTQSPSTLSASVGDRVTITCRASQSISSWLAWYQQKPGKAPKLLIYKASNLESGVPLRFSGSGSGTEFTLTISSLQPDDFATYYCQQYNNYWTFGQGTKVEIK
As for B1, the binding result in test [1] is “binds”.

B2: Fab 2541 (Fab, V domains shown)
VH: QVQLVESGGGVVQPGRSLRLSCAASGFTFSSYGMHWVRQTTGKGLEWVAIIWHDGSKKYYADSVKGRLTISRDNSKNTLYLQMNSLRVEDTALYYCARVGDYSDFKYGAFDIWGQGTMVTVSS
VL: DIQMTQSPSTLSASVGDRVTITCRASQSISSWLAWYQQKPGKAPNLLIYKASTLESGVPSRFSGSGSGTEFTLTISSLQPDDFATYYCQQYNSYWTFGQGTRVEIK
For B2, the binding result in test [1] is on record as “binds”.

B3: monoclonal antibody (mAb) 850 (antibody, V domains shown)
VH: QVQLVESGGGVVQPGRSLRLSCAASGFTFSNFGMHWIRQSPGKGLEWVAIIWYDGSNTYYADSVKGRFTISRDNSKNTLYLQMNSLRAEDTAVYYCAKVWFGESEDNYSVDVWGQGTTVTVSS
VL: DIQMTQSPSTLSTSVGDRVTITCRASQSISNWLAWYQQKPGKAPKLLIYKASTLESGVPSRFSGSGSGTEFTLTISSLQPDDFATYYCQQYSSYWTFGQGTKLEIK
notes: VH of mAb 850 (IGHV3-33); human IgG1 heavy chain constant region (antibodies expressed as fully human IgG1); VK of mAb 850 (IGKV1-5); human Ig kappa constant region (antibodies expressed as fully human IgG1); IgG1, kappa; source: recombinantly expressed as fully human IgG1; re-expressed in CHO-3E7 cells, purified (MabSelect SuRe LX)
For the molecule B3, the Kd with NANP6 peptide was determined as 0.025 nM.

The values are drawn from PMC9762590 (PLOS Pathogens, 2022).
